# From US20250019402A1 (MEDIZINISCHE UNIVERSITAT INNSBRUCK, published 2025)
# [ ]: non-standard residue; d: D form. The star is where a group is joined. DOTA = O=C(O)CN1CCN(CC(=O)O)CCN(CC(=O)*)CCN(CC(=O)O)CC1; 1Nal = N[C@@H](Cc1cccc2ccccc12)C(=O)O; 2Nal = N[C@@H](Cc1ccc2ccccc2c1)C(=O)O; NMeF = CN[C@@H](Cc1ccccc1)C(=O)O; NMeNle = CCCC[C@H](NC)C(=O)O; HYNIC = NNc1ccc(C(=O)*)cn1
# T1: human cholecystokinin-2 receptor (CCK2R) (human, UniProt P32239 1-447)
# T1 sequence (looked up): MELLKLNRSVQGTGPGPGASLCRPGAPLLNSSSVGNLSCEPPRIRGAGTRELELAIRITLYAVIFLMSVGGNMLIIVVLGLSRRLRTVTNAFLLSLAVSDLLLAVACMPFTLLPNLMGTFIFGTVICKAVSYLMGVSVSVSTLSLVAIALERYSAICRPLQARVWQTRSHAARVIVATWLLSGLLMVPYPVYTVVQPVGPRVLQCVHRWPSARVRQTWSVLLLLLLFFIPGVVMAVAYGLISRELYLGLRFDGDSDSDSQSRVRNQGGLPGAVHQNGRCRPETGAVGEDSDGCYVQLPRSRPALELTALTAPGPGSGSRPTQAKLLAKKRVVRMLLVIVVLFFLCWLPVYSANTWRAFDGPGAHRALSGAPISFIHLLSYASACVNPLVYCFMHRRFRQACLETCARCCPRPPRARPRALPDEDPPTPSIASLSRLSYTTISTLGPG
# Biological target: T1, human cholecystokinin-2 receptor (CCK2R)
# Test: cell-based or functional assay
cellular internalization after 2 h incubation on A431-CCK2R cells (% of total activity) [%],cell uptake after 2 h incubation on A431-CCK2R cells (% of total activity) [%],Molecule
29,–,^111In-DOTA-MG11 (peptide)
–,< 30,{DOTA}-[dE][dE][dE][dE][dE][dE]AYGWMDF-NH2 (also: DOTA coordinating 177Lu) [^177Lu-PP-F11]
–,63,"{HYNIC}-[dE]AYGW[NMeNle]D[1Nal]-NH2 (also: HYNIC coordinating 99mTc, co-ligand not given here) [^99mTc-HYNIC-MGS5]"
–,68,{DOTA}-[dE]AYGW[NMeNle]D[1Nal]-NH2 (also: DOTA coordinating 111In) [^111In-DOTA-MGS5]
> 50,–,{DOTA}-[dE]YPGW[NMeNle]D[1Nal]-NH2 (also: DOTA coordinating 177Lu) [^177Lu-DOTA-MGS10]

# Further lines, the molecule ahead of its results:
Molecule,cellular internalization after 2 h incubation on A431-CCK2R cells (% of total activity) [%],cell uptake after 2 h incubation on A431-CCK2R cells (% of total activity) [%]
{DOTA}-[dE]AYGW[NMeNle]D[1Nal]-NH2 (also: DOTA coordinating 68Ga) [^68Ga-DOTA-MGS5],–,54
{DOTA}-[dE]AYGW[NMeNle]D[1Nal]-NH2 (also: DOTA coordinating 177Lu) [^177Lu-DOTA-MGS5],–,63
{DOTA}-[dE]AYPW[NMeNle]D[1Nal]-NH2 (also: DOTA coordinating 68Ga) [^68Ga-DOTA-MGS12],~40,–
{DOTA}-[dE]AYGW[NMeNle]D[2Nal]-NH2 (also: DOTA coordinating 111In) [^111In-DOTA-MGS5-2],–,45
{DOTA}-[dK]AYGW[NMeNle]D[1Nal]-NH2 (also: DOTA coordinating 111In) [^111In-DOTA-MGS9],–,37
{DOTA}-[dE][dE][dE][dE][dE][dE]AYGWMDF-NH2 (also: DOTA coordinating 111In) [^111In-PP-F11],< 24,–

# Biological target: human cholecystokinin-2 receptor (CCK2R) (human) (UniProt P32239)
# Test: displacement of [125I]Tyr12-gastrin-I on A431-CCK2R cells, filter plates, 1 h RT
row,IC50 [nM],Molecule
1,0.9,"DOTA-MG11 ([1,4,7,10-tetraazacyclodocecan-1,4,7,10-tetraacetic acid^0, D-Glu^1, DesGlu^2-6] minigastrin) (peptide)"

# Biological target: serum proteins (fresh human serum) (human)
# Test: incubation in fresh human serum at 37 C (500 pmol/mL), Sephadex G-50 size-exclusion chromatography, gamma counting
Percentage of radioligand bound to serum proteins after 4 h incubation [%],Percentage of radioligand bound to serum proteins after 24 h incubation [%],Molecule
41,44.3,{DOTA}-[dE]AYGW[NMeNle]D[1Nal]-NH2 (also: DOTA coordinating 111In) [^111In-DOTA-MGS5]
44.5,52.8,{DOTA}-[dE]PYGW[NMeNle]D[1Nal]-NH2 (also: DOTA coordinates 111In) [^111In-DOTA-MGS8]
20,28.8,{DOTA}-[dE]AYGWMD[1Nal]-NH2 (also: DOTA coordinates 111In) [^111In-DOTA-MGS1 (^111In-DOTA-DGlu-Ala-Tyr-Gly-Trp-Met-Asp-1Nal-NH2)]

# Second part, the molecule before the results:
Molecule,Percentage of radioligand bound to serum proteins after 4 h incubation [%],Percentage of radioligand bound to serum proteins after 24 h incubation [%]
{DOTA}-[dE]AYGW[NMeNle]D[2Nal]-NH2 (also: DOTA coordinating 111In) [^111In-DOTA-MGS5-2],31.7,34.6
{DOTA}-[dE]AYPW[NMeNle]D[1Nal]-NH2 (also: DOTA coordinates 111In) [^111In-DOTA-MGS12],41.2,45.9
{DOTA}-[dK]AYGW[NMeNle]D[1Nal]-NH2 (also: DOTA coordinating 111In) [^111In-DOTA-MGS9],26.6,27.8
{DOTA}-[dE]AYGW[NMeNle]D[NMeF]-NH2 (also: DOTA coordinates 111In) [^111In-DOTA-MGS4 (^111In-DOTA-DGlu-Ala-Tyr-Gly-Trp-(N-Me)Nle-Asp-(N-Me)Phe-NH2)],8.9,11.9
{DOTA}-[dE]YPGW[NMeNle]D[1Nal]-NH2 (also: DOTA coordinates 111In) [^111In-DOTA-MGS10],56.7,53.4

# Biological target: T1, human cholecystokinin-2 receptor (CCK2R)
# Test: displacement of [125I]Tyr12-gastrin-I on A431-CCK2R cells, filter plates, 1 h RT
# Experimental: Affinity for CCK2R was studied in A431 human epidermoid carcinoma cells stably transfected with the plasmid pCR3.1 containing the full coding sequence for the human CCK2R (A431-CCK2R) kindly provided by Dr. Luigi Aloj (Aloj L et al., J Nucl Med 2004, 45:485-494). […] Binding assays were carried out in 96-well filter plates (MultiScreenHTS-FB, Merck Group, Darmstadt, Germany) pretreated with 10 mM TRIS/139 mM NaCl PH 7.4 (2×250 μl). For the assay a number of 200,000-400,000 A431-CCK2R cells per well was prepared in 35mM HEPES buffer pH 7.4 containing 10 mM MgCl₂, 14 μM bacitracin and 0.5% BSA (a hypotonic solution disturbing the integrity of the cell membranes). […] Incubation was interrupted by filtration of the medium and rapid rinsing with ice-cold 10 mM TRIS/139 mM NaCl PH 7.4 (2×200 μl) and the filters were counted in the gamma-counter. Half maximal inhibitory concentration (IC50) values were calculated following nonlinear regression with Origin software (Microcal Origin 6.1, Northampton, MA) and a representative assay was chosen for comparison.
row,IC50 [nM],Molecule
1,1.6,{DOTA}-[dE]PYGW[NMeNle]D[1Nal]-NH2 (SMILES CCCC[C@@H](C(=O)N[C@@H](CC(=O)O)C(=O)N[C@@H](Cc1cccc2ccccc12)C(N)=O)N(C)C(=O)[C@H](Cc1c[nH]c2ccccc12)NC(=O)CNC(=O)[C@H](Cc1ccc(O)cc1)NC(=O)[C@@H]1CCCN1C(=O)[C@@H](CCC(=O)O)NC(=O)CN1CCN(CC(=O)O)CCN(CC(=O)O)CCN(CC(=O)O)CC1) [DOTA-MGS8 (DOTA-DGlu-Pro-Tyr-Gly-Trp-(N-Me)Nle-Asp-1Nal-NH2)]
2,1.8,{DOTA}-[dK]AYGW[NMeNle]D[1Nal]-NH2 (SMILES CCCC[C@@H](C(=O)N[C@@H](CC(=O)O)C(=O)N[C@@H](Cc1cccc2ccccc12)C(N)=O)N(C)C(=O)[C@H](Cc1c[nH]c2ccccc12)NC(=O)CNC(=O)[C@H](Cc1ccc(O)cc1)NC(=O)[C@H](C)NC(=O)[C@@H](CCCCN)NC(=O)CN1CCN(CC(=O)O)CCN(CC(=O)O)CCN(CC(=O)O)CC1) [DOTA-MGS9 (DOTA-DLys-Ala-Tyr-Gly-Trp-(N-Me)Nle-Asp-1Nal-NH2)]
3,0.9,{DOTA}-[dE]YPGW[NMeNle]D[1Nal]-NH2 (SMILES CCCC[C@@H](C(=O)N[C@@H](CC(=O)O)C(=O)N[C@@H](Cc1cccc2ccccc12)C(N)=O)N(C)C(=O)[C@H](Cc1c[nH]c2ccccc12)NC(=O)CNC(=O)[C@@H]1CCCN1C(=O)[C@H](Cc1ccc(O)cc1)NC(=O)[C@@H](CCC(=O)O)NC(=O)CN1CCN(CC(=O)O)CCN(CC(=O)O)CCN(CC(=O)O)CC1) [DOTA-MGS10 (DOTA-DGlu-Tyr-Pro-Gly-Trp-(N-Me)Nle-Asp-1Nal-NH2)]
4,1.2,{DOTA}-[dE]AYGW[NMeNle]D[NMeF]-NH2 (SMILES CCCC[C@@H](C(=O)N[C@@H](CC(=O)O)C(=O)N(C)[C@@H](Cc1ccccc1)C(N)=O)N(C)C(=O)[C@H](Cc1c[nH]c2ccccc12)NC(=O)CNC(=O)[C@H](Cc1ccc(O)cc1)NC(=O)[C@H](C)NC(=O)[C@@H](CCC(=O)O)NC(=O)CN1CCN(CC(=O)O)CCN(CC(=O)O)CCN(CC(=O)O)CC1) [DOTA-MGS4 (DOTA-DGlu-Ala-Tyr-Gly-Trp-(N-Me)Nle-Asp-(N-Me)Phe-NH2)]
5,1.9,{DOTA}-[dE]AYGWMD[1Nal]-NH2 [DOTA-MGS1 (DOTA-DGlu-Ala-Tyr-Gly-Trp-Met-Asp-1Nal-NH2)]
6,6,{HYNIC}-[dE]AYGW[NMeNle]D[1Nal]-NH2 [HYNIC-MGS5 (HYNIC-DGlu-Ala-Tyr-Gly-Trp-(N-Me)Nle-Asp-1Nal-NH2)]
7,1.6,{DOTA}-[dE]AYGW[NMeNle]D[2Nal]-NH2 (SMILES CCCC[C@@H](C(=O)N[C@@H](CC(=O)O)C(=O)N[C@@H](Cc1ccc2ccccc2c1)C(N)=O)N(C)C(=O)[C@H](Cc1c[nH]c2ccccc12)NC(=O)CNC(=O)[C@H](Cc1ccc(O)cc1)NC(=O)[C@H](C)NC(=O)[C@@H](CCC(=O)O)NC(=O)CN1CCN(CC(=O)O)CCN(CC(=O)O)CCN(CC(=O)O)CC1) [DOTA-MGS5-2 (DOTA-DGlu-Ala-Tyr-Gly-Trp-(N-Me)Nle-Asp-2Nal-NH2)]
